The record followed here is patent US20050048070A1 (published 2005).

In test [1] the target is T1, K8(1-233)/K18(1-72) heterotypic complex (human, UniProt P05787 2-234; P05783 2-73).
T1 construct: Heterotypic complex of two GST fusion proteins; not shown: glutathione S-transferase (GST) fusion partner, modified pGEX-2T vector
T1 sequence 1: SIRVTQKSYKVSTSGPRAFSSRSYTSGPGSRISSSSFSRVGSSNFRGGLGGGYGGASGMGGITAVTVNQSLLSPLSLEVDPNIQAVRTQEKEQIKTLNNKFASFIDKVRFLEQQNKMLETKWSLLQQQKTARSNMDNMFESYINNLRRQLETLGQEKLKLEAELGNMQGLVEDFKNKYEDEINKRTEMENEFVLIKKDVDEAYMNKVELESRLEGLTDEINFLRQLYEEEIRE
T1 sequence 2: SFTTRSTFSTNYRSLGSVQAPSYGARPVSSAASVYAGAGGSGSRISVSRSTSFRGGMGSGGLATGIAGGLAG
Description: heterotypic association assay: blotted K18 proteins incubated with purified K8(1-233), then stained with COU-1.

In another test the target is T2, K8 (1-367).
T2 construct: not shown: N-terminal GST and its linker (modified pGEX-2T)
T2 chain: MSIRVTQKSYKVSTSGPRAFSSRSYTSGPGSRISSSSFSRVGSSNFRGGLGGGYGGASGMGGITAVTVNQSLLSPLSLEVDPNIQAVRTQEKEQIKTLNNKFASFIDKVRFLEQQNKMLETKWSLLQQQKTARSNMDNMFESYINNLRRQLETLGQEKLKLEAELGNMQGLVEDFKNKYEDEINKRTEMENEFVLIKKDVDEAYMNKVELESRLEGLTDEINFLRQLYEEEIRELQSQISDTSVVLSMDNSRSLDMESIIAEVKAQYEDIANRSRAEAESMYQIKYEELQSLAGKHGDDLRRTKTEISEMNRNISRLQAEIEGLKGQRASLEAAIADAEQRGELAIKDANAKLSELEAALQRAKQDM
Description: Western blot of SDS-PAGE-separated K8 GST fusion proteins, stained with COU-1 alone. (In general: Immunoblotting shows a protein as a band on a membrane.)

The next test has as its target T3, K8 (1-383).
T3 construct: not shown: N-terminal GST and its linker (modified pGEX-2T)
T3 chain: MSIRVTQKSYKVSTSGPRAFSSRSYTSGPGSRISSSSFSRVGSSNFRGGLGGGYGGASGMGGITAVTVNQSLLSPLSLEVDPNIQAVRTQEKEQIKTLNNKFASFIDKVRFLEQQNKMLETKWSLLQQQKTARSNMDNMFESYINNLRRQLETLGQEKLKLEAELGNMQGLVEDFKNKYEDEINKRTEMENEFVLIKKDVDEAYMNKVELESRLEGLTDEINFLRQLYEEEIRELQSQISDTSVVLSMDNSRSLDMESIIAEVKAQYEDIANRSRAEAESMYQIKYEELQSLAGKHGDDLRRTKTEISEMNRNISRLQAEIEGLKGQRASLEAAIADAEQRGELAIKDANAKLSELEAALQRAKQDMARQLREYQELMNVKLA
The test is described as above.

For the next test, the target named is T4, K8 (1-342).
T4 construct: not shown: N-terminal GST and its linker (modified pGEX-2T)
T4 chain: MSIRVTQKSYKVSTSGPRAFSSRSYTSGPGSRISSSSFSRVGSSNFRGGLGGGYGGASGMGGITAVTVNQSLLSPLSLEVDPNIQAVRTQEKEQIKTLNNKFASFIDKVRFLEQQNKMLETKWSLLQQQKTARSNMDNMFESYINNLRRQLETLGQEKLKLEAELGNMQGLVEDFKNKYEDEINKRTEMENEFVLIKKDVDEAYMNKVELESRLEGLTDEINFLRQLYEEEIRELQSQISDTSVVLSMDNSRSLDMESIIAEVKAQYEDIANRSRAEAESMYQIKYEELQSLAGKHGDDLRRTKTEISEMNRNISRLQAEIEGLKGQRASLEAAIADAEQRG
The test is described as above.

A further test concerns the target T5, K8 (1-299).
T5 construct: not shown: N-terminal GST and its linker (modified pGEX-2T)
T5 chain: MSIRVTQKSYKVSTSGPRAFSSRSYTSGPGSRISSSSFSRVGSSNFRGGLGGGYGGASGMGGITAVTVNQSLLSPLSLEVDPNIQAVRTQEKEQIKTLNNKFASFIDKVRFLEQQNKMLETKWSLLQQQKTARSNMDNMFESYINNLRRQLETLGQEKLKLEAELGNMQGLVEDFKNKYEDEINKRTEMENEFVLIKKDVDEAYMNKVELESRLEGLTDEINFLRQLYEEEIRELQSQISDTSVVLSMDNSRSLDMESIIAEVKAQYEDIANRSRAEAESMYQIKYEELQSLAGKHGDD
Described as above.

In test [2] the target is T6, K18(1-312) GST fusion protein (human, UniProt P05783 2-313).
T6 construct: Alone, not complexed; not shown: glutathione S-transferase (GST) fusion partner, modified pGEX-2T vector
T6 sequence: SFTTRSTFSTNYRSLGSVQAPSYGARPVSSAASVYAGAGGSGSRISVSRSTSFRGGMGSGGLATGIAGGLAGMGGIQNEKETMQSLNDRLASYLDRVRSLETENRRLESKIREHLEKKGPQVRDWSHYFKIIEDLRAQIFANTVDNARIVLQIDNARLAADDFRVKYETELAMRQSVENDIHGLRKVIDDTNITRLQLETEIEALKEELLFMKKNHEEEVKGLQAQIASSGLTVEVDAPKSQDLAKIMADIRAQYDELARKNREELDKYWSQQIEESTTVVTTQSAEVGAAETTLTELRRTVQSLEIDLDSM
Description: Western blot of SDS-PAGE-separated K18 GST fusion proteins, stained with COU-1 alone.

Test [3] concerns the target T7, K18(1-385) GST fusion protein (human, UniProt P05783 2-386).
T7 construct: Alone, not complexed; not shown: glutathione S-transferase (GST) fusion partner, modified pGEX-2T vector
T7 sequence: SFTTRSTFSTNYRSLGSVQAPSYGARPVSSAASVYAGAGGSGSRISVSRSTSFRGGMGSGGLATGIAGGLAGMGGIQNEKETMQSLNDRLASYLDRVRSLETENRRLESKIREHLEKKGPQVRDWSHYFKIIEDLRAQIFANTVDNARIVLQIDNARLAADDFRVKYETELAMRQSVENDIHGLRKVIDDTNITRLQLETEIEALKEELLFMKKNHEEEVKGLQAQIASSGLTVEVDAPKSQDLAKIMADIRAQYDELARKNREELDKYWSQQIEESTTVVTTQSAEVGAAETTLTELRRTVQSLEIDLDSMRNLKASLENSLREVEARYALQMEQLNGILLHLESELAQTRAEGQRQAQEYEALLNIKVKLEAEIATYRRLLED
Described as above.

Description for K8 (1-299): (§1) Electrophoresis was performed in a discontinuous buffer system on 8 cm 4-20% or 10% (w/v) polyacrylamide gels for analysis and on 15 cm 14% polyacrylamide gels for N-terminal sequencing (36). Samples were mixed with 2× sample buffer (4% SDS, 0.2% bromophenol blue, 20% glycerol in 100 mM Tris buffered saline), boiled for 5 min and resolved under denaturing and reducing (100 mM DTT) conditions. Protein bands were visualized with Coomassie Brilliant Blue. Separated proteins were also electroblotted onto polyvinylidene difluoride membranes (PVDF, Immobilon P, Millipore, Bedford, Mass.), at 100 Volts for 1 h in ice, using transfer buffer (10% (v/v) ethanol, 25 mM Tris, 200 mM glycine). Prior to transfer, the membrane was pre-soaked in ethanol for 2 min and the membranes and the gel were incubated in transfer buffer for 10 min. […] The membrane was washed in Western blot buffer and incubated with AP-conjugated rabbit-anti-goat IgG antibody (diluted 1/1000, Sigma), or AP-conjugated rabbit-anti-human IgM antibody (diluted 1/500, DAKO, Glostrup, Denmark) for 2 h at room temperature. Following 3 washes in PBS, the membrane was fixed with 0.2% glutaraldehyde in PBS for 15 min at room temperature and finally washed in PBS. Bound AP conjugate was visualized by NBT/BCIP (Bio-Rad, Hercules, Calif.). MCF7 or Colon 137 cells, resuspended in SDS sample buffer and sonicated, were used as antigen control. A low range protein marker (Bio-Rad) was used to indicate the molecular weight of the fragments.
Description for K8 (1-342): as §1
Description for K8 (1-367): as §1
Description for K8 (1-383): as §1

B1: human monoclonal IgM antibody COU-1 (antibody, V domains shown)
VH: GAEVKKPGASVKVSCKASDYTFSSYYMHWVRQAPGQGLEWMGIINPSGGSTSYAQKFQGRVTMTRDTSTNTVYMELSSLRSEDTAVYYCARDQVVVAATLSNYGMDVWGQGTTVTVSS
VL: ELTQSPGTLSLSPGERATLSCRASQSVSSSYLAWYQQKPGQAPRLLIYDASNRATGIPARFSGSGSGTDFTLTISSLEPEDFAVYYCQQGTNWGIAFGQGTRLDIKR
notes: Human IgM with kappa light chain, secreted by hybridoma B9165 (ECACC 87040201), purified from culture supernatant; also called HMab COU-1; HuMab COU-1
Consider B1, for which the binding result is on record as “no binding (tested: 5 µg/ml COU-1 (P-0285))” in test [1]; “no binding (tested: 5 µg/ml COU-1 (P-0279))” with K8 (1-367); “no binding (tested: 5 µg/ml COU-1 (P-0279))” with K8 (1-383); “no binding (tested: 5 µg/ml COU-1 (P-0279))” in the test with K8 (1-342); “no binding (tested: 5 µg/ml COU-1 (P-0279))” with K8 (1-299); “no binding (tested: 5 µg/ml COU-1 (P-0279))” in test [2]. The binding result in test [3] is recorded as “no binding (tested: 5 µg/ml COU-1 (P-0279))”.
